Reference: patent US20110311507

Experiments:
[1] = target: T1, V5-tagged wild type murine Siae (UniProt P70665)
T1 sequence: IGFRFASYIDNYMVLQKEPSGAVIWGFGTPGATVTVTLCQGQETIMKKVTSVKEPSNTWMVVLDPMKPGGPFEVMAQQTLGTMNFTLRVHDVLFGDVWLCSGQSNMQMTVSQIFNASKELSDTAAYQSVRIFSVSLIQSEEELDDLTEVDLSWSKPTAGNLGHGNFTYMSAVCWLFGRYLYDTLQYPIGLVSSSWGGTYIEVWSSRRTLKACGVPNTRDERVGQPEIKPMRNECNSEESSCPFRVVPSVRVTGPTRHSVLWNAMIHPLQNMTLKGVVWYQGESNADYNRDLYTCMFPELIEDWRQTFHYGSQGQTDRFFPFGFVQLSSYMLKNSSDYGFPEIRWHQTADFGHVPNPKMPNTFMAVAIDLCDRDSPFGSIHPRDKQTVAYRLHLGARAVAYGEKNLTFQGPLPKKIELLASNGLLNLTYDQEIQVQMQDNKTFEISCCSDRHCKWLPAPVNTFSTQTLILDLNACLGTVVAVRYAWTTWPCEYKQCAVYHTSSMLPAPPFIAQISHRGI

[2] = target: T2, V5-tagged wild type murine Siae, P70665
T2 chain: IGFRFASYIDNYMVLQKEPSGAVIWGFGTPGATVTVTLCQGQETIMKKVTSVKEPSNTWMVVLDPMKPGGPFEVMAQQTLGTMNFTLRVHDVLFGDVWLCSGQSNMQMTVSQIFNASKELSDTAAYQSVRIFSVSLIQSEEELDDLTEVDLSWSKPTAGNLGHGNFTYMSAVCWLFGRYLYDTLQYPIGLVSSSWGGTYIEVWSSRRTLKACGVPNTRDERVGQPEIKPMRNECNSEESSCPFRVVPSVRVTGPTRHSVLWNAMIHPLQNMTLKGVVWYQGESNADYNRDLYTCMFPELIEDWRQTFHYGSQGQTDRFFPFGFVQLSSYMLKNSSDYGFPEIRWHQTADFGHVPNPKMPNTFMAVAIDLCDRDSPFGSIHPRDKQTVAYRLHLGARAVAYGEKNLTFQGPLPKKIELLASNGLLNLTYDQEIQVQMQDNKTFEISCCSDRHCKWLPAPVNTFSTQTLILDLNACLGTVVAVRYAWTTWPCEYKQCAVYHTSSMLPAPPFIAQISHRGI

## FLAG-tagged K426N Siae
[1]
  enzyme activity of V5-tagged WT Siae in co-transfectants, as a function of its protein level: lacks dominant negative activity

## FLAG-tagged murine F430S Siae
[1]
  enzyme activity of V5-tagged wild type Siae in co-transfectants, as a function of its protein level: function in a dominant interfering fashion

## FLAG-tagged murine Q335P SIAE
[1]
  enzyme activity of V5 tagged wild type SIAE in co-transfectants, as a function of its protein level: function in a dominant interfering fashion

## FLAG-tagged murine R505C Siae
[1]
  enzyme activity of V5-tagged wild type Siae in co-transfectants, as a function of its protein level: function in a dominant interfering fashion

## FLAG-tagged murine T338M SIAE
[1]
  enzyme activity of V5 tagged wild type SIAE in co-transfectants, as a function of its protein level: function in a dominant interfering fashion

## FLAG-tagged murine Y375C Siae
[1]
  enzyme activity of V5-tagged wild type Siae in co-transfectants, as a function of its protein level: function in a dominant interfering fashion

B1: FLAG-tagged murine C196F SIAE (protein)
chain: IGFRFASYIDNYMVLQKEPSGAVIWGFGTPGATVTVTLCQGQETIMKKVTSVKEPSNTWMVVLDPMKPGGPFEVMAQQTLGTMNFTLRVHDVLFGDVWLCSGQSNMQMTVSQIFNASKELSDTAAYQSVRIFSVSLIQSEEELDDLTEVDLSWSKPTAGNLGHGNFTYMSAVFWLFGRYLYDTLQYPIGLVSSSWGGTYIEVWSSRRTLKACGVPNTRDERVGQPEIKPMRNECNSEESSCPFRVVPSVRVTGPTRHSVLWNAMIHPLQNMTLKGVVWYQGESNADYNRDLYTCMFPELIEDWRQTFHYGSQGQTDRFFPFGFVQLSSYMLKNSSDYGFPEIRWHQTADFGHVPNPKMPNTFMAVAIDLCDRDSPFGSIHPRDKQTVAYRLHLGARAVAYGEKNLTFQGPLPKKIELLASNGLLNLTYDQEIQVQMQDNKTFEISCCSDRHCKWLPAPVNTFSTQTLILDLNACLGTVVAVRYAWTTWPCEYKQCAVYHTSSMLPAPPFIAQISHRGI
[2]
  enzyme activity of V5 tagged wild type SIAE in co-transfectants, as a function of its protein level: function in a dominant interfering fashion

B2: FLAG-tagged murine G212R Siae (protein)
chain: IGFRFASYIDNYMVLQKEPSGAVIWGFGTPGATVTVTLCQGQETIMKKVTSVKEPSNTWMVVLDPMKPGGPFEVMAQQTLGTMNFTLRVHDVLFGDVWLCSGQSNMQMTVSQIFNASKELSDTAAYQSVRIFSVSLIQSEEELDDLTEVDLSWSKPTAGNLGHGNFTYMSAVCWLFGRYLYDTLQYPIRLVSSSWGGTYIEVWSSRRTLKACGVPNTRDERVGQPEIKPMRNECNSEESSCPFRVVPSVRVTGPTRHSVLWNAMIHPLQNMTLKGVVWYQGESNADYNRDLYTCMFPELIEDWRQTFHYGSQGQTDRFFPFGFVQLSSYMLKNSSDYGFPEIRWHQTADFGHVPNPKMPNTFMAVAIDLCDRDSPFGSIHPRDKQTVAYRLHLGARAVAYGEKNLTFQGPLPKKIELLASNGLLNLTYDQEIQVQMQDNKTFEISCCSDRHCKWLPAPVNTFSTQTLILDLNACLGTVVAVRYAWTTWPCEYKQCAVYHTSSMLPAPPFIAQISHRGI
[2]
  enzyme activity of V5-tagged wild type Siae in co-transfectants, as a function of its protein level: function in a dominant interfering fashion
